The target in this experiment is HDM-2 in the cancer cell membrane (human, UniProt Q00987 1-491). Description: cell-based or functional assay.
Sequence of HDM-2 in the cancer cell membrane (Q00987 whole entry): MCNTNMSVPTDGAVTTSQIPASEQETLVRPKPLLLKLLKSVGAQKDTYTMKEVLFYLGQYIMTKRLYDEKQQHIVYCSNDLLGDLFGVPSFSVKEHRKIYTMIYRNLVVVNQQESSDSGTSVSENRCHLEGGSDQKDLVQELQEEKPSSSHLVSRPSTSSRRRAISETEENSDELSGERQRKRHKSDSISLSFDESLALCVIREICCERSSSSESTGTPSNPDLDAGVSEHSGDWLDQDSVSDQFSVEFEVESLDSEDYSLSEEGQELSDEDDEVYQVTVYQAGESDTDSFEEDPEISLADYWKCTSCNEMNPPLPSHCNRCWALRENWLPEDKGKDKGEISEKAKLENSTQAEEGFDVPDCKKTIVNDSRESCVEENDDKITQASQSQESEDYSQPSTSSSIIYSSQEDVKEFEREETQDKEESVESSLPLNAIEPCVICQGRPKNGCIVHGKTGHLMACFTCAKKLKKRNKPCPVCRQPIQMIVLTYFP

Turning to PPLSQETFSDLWKLLKKWKMRRNQFWVKVQRG [PNC-27 (p53 aa12-26-MRP)], the “IC50 (dose of PNC-27 on cancer cells)” value came out at 125 µg/mL.

Source of the values: US20210205403A1 (RESEARCH FOUNDATION FOR THE STATE UNIVERSITY OF NEW YORK, published 2021).
